This experiment addresses T1, membrane CD146 on cells (U87, U373, HUVEC) (human, UniProt P43121 24-646).
T1 construct: whole, on cells; also called MCAM; membranous CD146
T1 sequence (looked up): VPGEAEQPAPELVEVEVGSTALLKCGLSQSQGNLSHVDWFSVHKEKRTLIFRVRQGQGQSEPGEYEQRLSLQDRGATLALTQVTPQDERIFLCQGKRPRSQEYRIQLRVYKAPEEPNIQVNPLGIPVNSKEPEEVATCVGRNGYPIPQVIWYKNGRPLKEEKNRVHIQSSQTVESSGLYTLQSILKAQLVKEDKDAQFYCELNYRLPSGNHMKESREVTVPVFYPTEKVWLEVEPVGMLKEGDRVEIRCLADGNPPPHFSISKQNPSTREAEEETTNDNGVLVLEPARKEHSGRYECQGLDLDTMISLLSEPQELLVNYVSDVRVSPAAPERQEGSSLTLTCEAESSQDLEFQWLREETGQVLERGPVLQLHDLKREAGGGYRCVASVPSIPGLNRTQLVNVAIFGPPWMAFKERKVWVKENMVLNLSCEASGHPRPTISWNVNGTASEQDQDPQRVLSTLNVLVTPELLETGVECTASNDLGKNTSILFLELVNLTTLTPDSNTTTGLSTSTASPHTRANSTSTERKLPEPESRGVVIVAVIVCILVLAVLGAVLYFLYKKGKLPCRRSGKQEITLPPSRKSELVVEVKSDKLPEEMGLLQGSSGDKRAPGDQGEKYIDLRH
The experiment is described as follows: co-immunoprecipitation with anti-CD146 antibody S-Endo1 from U87 cells (reproduced in U373), western blot. As to the method:
Non-confluent U373 cells were used for immunoprecipitation with IgG or anti-CD146 antibody. Western-blotting was then carried out using antibodies directed against VEGFR2, CD146 and integrin subunits αv and β3. Membrane receptor EPcam was used as a negative control (A). U373 cells transfected or not with siRNA targeting β3 integrin were stimulated for 25 min with sCD146 or VEGF, and CD146 was immunoprecipitated before western blotting was done using antibody directed against total phospho-tyrosine (B). Control, CD146-KO, VEGFR2-KO or β3-KO U87 cells were stimulated for 25 min with either sCD146 or VEGF. Lysates were then subjected to western-blotting and membranes were probed with either anti-phospho β3 Y759 (C) or anti-phospho VEGFR2 Y1054 (D). Average of 3 experiments is shown; *P<0.05, **P<0.01, ***p<0.001, experimental vs control.
Briefly, cells were grown on plates and treated as a function of the experiment, then washed in PBS, scraped off the plates and extracted with 300 μl of ice-cold RIPA buffer (150 mM NaCl, 50 mM Tris HCl, pH 7.4, 2.4 mM EDTA, 1% Nonidet P40, 0.5 mM phenylmethylsulfonyl fluoride, supplemented with protease and phosphatase inhibitor (A32959)) for 30 min at 4° C. After centrifugation (12,000 g, 10 min, 4° C.) to eliminate cell debris and nuclei, the Pierce™ BCA protein assay kit was used to quantify protein concentration. […]
In general terms: A western blot detects proteins with antibodies after separation by electrophoresis.

B1: EPCAM on cells (U87, U373) (other, human, UniProt P16422 24-314, looked up)
chain: QEECVCENYKLAVNCFVNNNRQCQCTSVGAQNTVICSKLAAKCLVMKAEMNGSKLGRRAKPEGALQNNDGLYDPDCDESGLFKAKQCNGTSMCWCVNTAGVRRTDKDTEITCSERVRTYWIIIELKHKAREKPYDSKSLRTALQKEITTRYQLDPKFITSILYENNVITIDLVQNSSQKTQNDVDIADVAYYFEKDVKGESLFHSKKMDLTVNGEQLDLDPGQTLIYYVDEKAPEFSMQGLKAGVIAVIVVVVIAVVAGIVVLVISRKKRMAKYEKAEIKEMGEMHRELNA
notes: whole, on cells
As to B1, the binding result is on record as “no binding”.

Source of the values: patent US20260132217A1 (UNIVERSITE D AIX MARSEILLE, published 2026).
